Measurements published in EP4772193A1 (Teijin Pharma Limited, dated 2026).
Changes are numbered by the printed parent chain. Names may count otherwise.

B1: hGPN18-5_H2L2 (antibody, V domains shown)
VH: QVQLVQSGAEVKKPGASVKVSCKASGYTFTTYWMNWVRQAPGQGLEWIGAINPSNDYTEYNQKFKDRATMTADTSTSTVYMELSSLRSEDTAVYYCGRSYSPDYWGQGTTVTVSS
VL: DIQMTQSPSSLSASVGDRVTITCKASQNVDNHVAWFQQKPGKAPKALIYSASYRYSGVPDRFSGSGSGTDFTLTISSLQPEDFATYFCQQYKSYPFTFGGGTKLEIK
notes: humanized; also called hGPN18-5_VH2+VL2
B2: hGPN18-5_H1L2 (antibody, V domains shown)
VH: B1 VH with A68V
VL: B1 VL
notes: humanized; also called hGPN18-5_VH1+VL2
B3: hGPN18-5_H1L3 (antibody, V domains shown)
VH: B1 VH with A68V
VL: B1 VL with F36H, S63T, T85D
notes: humanized; also called hGPN18-5_VH1+VL3; GPN18-5-VH1+VL3
B4: hGPN18-2_H2L3 VL F94A (antibody, V domains shown)
VH: QVQLVQSGPGLVQPTQTLTLTCSFSGFSLSTSVMGVGWIRQPSGKGLEWLADIWWDDDKDYNPSLKSRLTISKDTSKNQVVLTMTNMDTVDTATYYCARTYYSNYEYYGMDYWGQGTLVTVSS
VL: DIVMTQSPDSLAVSLGERATINCRSSQTIILSNGNTYLEWYQQKPGQPPKLLIYKVSNRFSGVPDRFSGSGSGTDFTLTISSLQAEDVAVYYCAQGSHVPFTFGSGTKLEIKR
B5: hGPN18-2_H2L3 VL Y37A (antibody, V domains shown)
VH: B4 VH
VL: B4 VL with Y37A, A94F
B6: hGPN18-2_H2L3 VL G96A (antibody, V domains shown)
VH: B4 VH
VL: B4 VL with A94F, G96A
B7: hGPN18-2_H2L3 VL P100A (antibody, V domains shown)
VH: B4 VH
VL: B4 VL with A94F, P100A
B8: hGPN18-2_H2L3 VL N58A (antibody, V domains shown)
VH: B4 VH
VL: B4 VL with N58A, A94F
B9: hGPN18-2_H2L3 VL R24A (antibody, V domains shown)
VH: B4 VH
VL: B4 VL with R24A, A94F
B10: hGPN18-2_H2L3 VL S25A (antibody, V domains shown)
VH: B4 VH
VL: B4 VL with S25A, A94F
B11: hGPN18-2_H2L3 VL V99A (antibody, V domains shown)
VH: B4 VH
VL: B4 VL with A94F, V99A
B12: hGPN18-2_H2L3 VL K55A (antibody, V domains shown)
VH: B4 VH
VL: B4 VL with K55A, A94F
B13: hGPN18-2_H2L3 VL S57A (antibody, V domains shown)
VH: B4 VH
VL: B4 VL with S57A, A94F
B14: hGPN18-2_H2L3 VL L31A (antibody, V domains shown)
VH: B4 VH
VL: B4 VL with L31A, A94F
B15: hGPN18-2_H2L3 VL F101A (antibody, V domains shown)
VH: B4 VH
VL: B4 VL with A94F, F101A
B16: hGPN18-2_H2L3 VL R59A (antibody, V domains shown)
VH: B4 VH
VL: B4 VL with R59A, A94F
B17: hGPN18-2_H2L3 VL Q95A (antibody, V domains shown)
VH: B4 VH
VL: B4 VL with A94F, Q95A
B18: hGPN18-2_H2L3 VL H98A (antibody, V domains shown)
VH: B4 VH
VL: B4 VL with A94F, H98A
B19: hGPN18-2_H2L3 VL T102A (antibody, V domains shown)
VH: B4 VH
VL: B4 VL with A94F, T102A
B20: hGPN18-2_H2L3 VL I30A (antibody, V domains shown)
VH: B4 VH
VL: B4 VL with I30A, A94F
B21: hGPN18-2_H2L3 VL V56A (antibody, V domains shown)
VH: B4 VH
VL: B4 VL with V56A, A94F
B22: hGPN18-2_H2L3 VL G34A (antibody, V domains shown)
VH: B4 VH
VL: B4 VL with G34A, A94F
B23: hGPN18-2_H2L3 VL S61A (antibody, V domains shown)
VH: B4 VH
VL: B4 VL with S61A, A94F
B24: hGPN18-2_H2L3 VL I29A (antibody, V domains shown)
VH: B4 VH
VL: B4 VL with I29A, A94F
B25: hGPN18-2_H2L3 VL L38A (antibody, V domains shown)
VH: B4 VH
VL: B4 VL with L38A, A94F
B26: hGPN18-2_H2L3 VL T36A (antibody, V domains shown)
VH: B4 VH
VL: B4 VL with T36A, A94F
B27: hGPN18-2_H2L3 VL Q27A (antibody, V domains shown)
VH: B4 VH
VL: B4 VL with Q27A, A94F
B28: hGPN18-2_H2L3 VL N33A (antibody, V domains shown)
VH: B4 VH
VL: B4 VL with N33A, A94F
B29: hGPN18-2_H2L3 VL S26A (antibody, V domains shown)
VH: B4 VH
VL: B4 VL with S26A, A94F
B30: hGPN18-2_H2L3 VL N35A (antibody, V domains shown)
VH: B4 VH
VL: B4 VL with N35A, A94F
B31: hGPN18-2_H2L3 VL S97A (antibody, V domains shown)
VH: B4 VH
VL: B4 VL with A94F, S97A
B32: hGPN18-2_H2L3 VL S32A (antibody, V domains shown)
VH: B4 VH
VL: B4 VL with S32A, A94F
B33: hGPN18-2_H2L3 VL T28A (antibody, V domains shown)
VH: B4 VH
VL: B4 VL with T28A, A94F

The binders below were run against T1, human gpNMB (Human Osteoactivin, His-tag, AcroBioSystems) (human, UniProt Q14956-2 23-486, limits assumed) (assay: SPR Biacore 8K, antibody captured on protein A, gpNMB as analyte).
T1 sequence (looked up): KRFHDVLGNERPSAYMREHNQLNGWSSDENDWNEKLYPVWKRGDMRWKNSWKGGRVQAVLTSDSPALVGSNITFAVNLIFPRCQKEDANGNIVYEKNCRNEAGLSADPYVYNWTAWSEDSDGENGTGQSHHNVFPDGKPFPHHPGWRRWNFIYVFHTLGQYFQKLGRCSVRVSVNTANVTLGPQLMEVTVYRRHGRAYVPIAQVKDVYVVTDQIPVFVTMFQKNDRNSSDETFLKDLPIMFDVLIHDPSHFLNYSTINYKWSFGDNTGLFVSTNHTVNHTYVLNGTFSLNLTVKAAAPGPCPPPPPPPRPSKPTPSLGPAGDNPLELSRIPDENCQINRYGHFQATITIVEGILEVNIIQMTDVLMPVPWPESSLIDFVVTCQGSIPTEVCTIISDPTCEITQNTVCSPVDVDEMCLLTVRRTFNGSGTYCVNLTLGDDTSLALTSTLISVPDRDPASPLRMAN
For B1, the Kd was 763 nM, the koff was 0.00403 s⁻¹ and the kon was 5280 M⁻¹ s⁻¹. Work on B2 yielded a Kd of 423 nM, a koff of 0.00396 s⁻¹ and a kon of 9380 M⁻¹ s⁻¹. B3 gave a Kd of 214 nM, a koff of 0.00153 s⁻¹ and a kon of 7150 M⁻¹ s⁻¹.

What follows are binders tested against T2, recombinant human soluble gpNMB (recombinant human gpNMB-FLAG-His) (human, UniProt Q14956 23-498) (assay: antigen ELISA, vs hGPN18-2_H2L3).
T2 sequence: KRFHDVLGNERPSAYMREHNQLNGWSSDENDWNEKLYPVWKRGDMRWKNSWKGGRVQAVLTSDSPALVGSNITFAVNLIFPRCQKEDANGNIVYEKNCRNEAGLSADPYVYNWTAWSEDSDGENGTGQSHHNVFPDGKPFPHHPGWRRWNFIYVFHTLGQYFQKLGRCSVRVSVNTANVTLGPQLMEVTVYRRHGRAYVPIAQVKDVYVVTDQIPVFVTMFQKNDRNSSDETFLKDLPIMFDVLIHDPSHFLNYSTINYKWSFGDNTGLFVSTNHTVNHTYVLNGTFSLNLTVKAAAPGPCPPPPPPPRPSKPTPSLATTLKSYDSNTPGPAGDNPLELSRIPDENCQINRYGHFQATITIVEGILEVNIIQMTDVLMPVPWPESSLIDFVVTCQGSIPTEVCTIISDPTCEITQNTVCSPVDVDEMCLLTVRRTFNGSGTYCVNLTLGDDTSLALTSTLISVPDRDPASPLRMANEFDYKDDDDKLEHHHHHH
B4 was tested, and the Relative binding activity was 0.07. In the case of B5, the Relative binding activity is reported as 0.37. B6 gave a Relative binding activity of 0.91. B7 gave a Relative binding activity of 0.84. For B8, the Relative binding activity was 1.04. For B9, the Relative binding activity was 1.04. In the case of B10, the Relative binding activity is reported as 1.01. Work on B11 yielded a Relative binding activity of 0.81. B12 showed a Relative binding activity of 0.31. For B13, the Relative binding activity was 1.05. With B14 the Relative binding activity was 0.41. B15 gave a Relative binding activity of 0.69. B16 showed a Relative binding activity of 1.11. Work on B17 yielded a Relative binding activity of 0.79. With B18 the Relative binding activity was 0.8. B19 was tested, and the Relative binding activity was 0.81. B20 gave a Relative binding activity of 1. B21 showed a Relative binding activity of 1.07. With B22 the Relative binding activity was 1. Work on B23 yielded a Relative binding activity of 0.94. Binder B24 has a Relative binding activity of 0.75. B25 showed a Relative binding activity of 1.06. Binder B26 has a Relative binding activity of 1.06. B27 was tested, and the Relative binding activity was 1.04. Binder B28 has a Relative binding activity of 0.82. Binder B29 has a Relative binding activity of 1.03. B30 showed a Relative binding activity of 1.11. For B31, the Relative binding activity was 1.04. B32 gave a Relative binding activity of 0.92. In the case of B33, the Relative binding activity is reported as 1.05.

The binders below were run against T2, recombinant human soluble gpNMB … (assay: antigen ELISA).
B4 was tested, and the EC50 was 18 nM. Work on B5 yielded an EC50 of 27.1 nM. In the case of B6, the EC50 is reported as 10.8 nM. B7 was tested, and the EC50 was 4.22 nM. B8 was tested, and the EC50 was 2.86 nM. B9 was tested, and the EC50 was 4.73 nM. With B10 the EC50 was 3.76 nM. With B11 the EC50 was 9.93 nM. B12 showed an EC50 of 48.3 nM. B13 showed an EC50 of 3.14 nM. B14 showed an EC50 of 20.7 nM. B15 showed an EC50 of 7.66 nM. In the case of B16, the EC50 is reported as 2.36 nM. B17 was tested, and the EC50 was 5.49 nM. Work on B18 yielded an EC50 of 5.69 nM. B19 was tested, and the EC50 was 4.73 nM. In the case of B20, the EC50 is reported as 4.1 nM. Binder B21 has an EC50 of 2.99 nM. For B22, the EC50 was 3.94 nM. Work on B23 yielded an EC50 of 3.63 nM. B24 showed an EC50 of 6.04 nM. B25 showed an EC50 of 4.15 nM. B26 showed an EC50 of 4.74 nM. B27 was tested, and the EC50 was 4 nM. With B28 the EC50 was 3.66 nM. Work on B29 yielded an EC50 of 3.14 nM. Binder B30 has an EC50 of 3.08 nM. For B31, the EC50 was 3.29 nM. B32 showed an EC50 of 8.67 nM. In the case of B33, the EC50 is reported as 2.91 nM.
